The assay concerns the target Taxol-stabilized microtubules (UniProt P02550 1-451). The assay is described as follows: co-sedimentation; equilibrium binding of 100 nM GST–CPn0572^595-755 with increasing amounts of Taxol-stabilized MTs; apparent Kd. As to conditions: both partners purified.

Sequence of Taxol-stabilized microtubules (P02550 whole entry, chain 1 of 2): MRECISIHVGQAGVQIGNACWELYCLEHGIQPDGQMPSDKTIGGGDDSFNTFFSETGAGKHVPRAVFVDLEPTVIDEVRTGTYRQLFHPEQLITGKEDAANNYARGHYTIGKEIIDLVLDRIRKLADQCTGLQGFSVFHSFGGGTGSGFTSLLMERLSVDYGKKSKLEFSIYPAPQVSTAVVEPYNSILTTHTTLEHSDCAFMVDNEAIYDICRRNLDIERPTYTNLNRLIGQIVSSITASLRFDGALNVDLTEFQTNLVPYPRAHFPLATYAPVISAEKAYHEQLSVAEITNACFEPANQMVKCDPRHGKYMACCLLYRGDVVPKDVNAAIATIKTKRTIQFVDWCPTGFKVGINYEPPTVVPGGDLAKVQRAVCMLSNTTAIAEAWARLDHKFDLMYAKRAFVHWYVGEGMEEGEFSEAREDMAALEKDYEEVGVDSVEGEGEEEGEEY
Sequence of Taxol-stabilized microtubules (P02554 whole entry, chain 2 of 2, further chain): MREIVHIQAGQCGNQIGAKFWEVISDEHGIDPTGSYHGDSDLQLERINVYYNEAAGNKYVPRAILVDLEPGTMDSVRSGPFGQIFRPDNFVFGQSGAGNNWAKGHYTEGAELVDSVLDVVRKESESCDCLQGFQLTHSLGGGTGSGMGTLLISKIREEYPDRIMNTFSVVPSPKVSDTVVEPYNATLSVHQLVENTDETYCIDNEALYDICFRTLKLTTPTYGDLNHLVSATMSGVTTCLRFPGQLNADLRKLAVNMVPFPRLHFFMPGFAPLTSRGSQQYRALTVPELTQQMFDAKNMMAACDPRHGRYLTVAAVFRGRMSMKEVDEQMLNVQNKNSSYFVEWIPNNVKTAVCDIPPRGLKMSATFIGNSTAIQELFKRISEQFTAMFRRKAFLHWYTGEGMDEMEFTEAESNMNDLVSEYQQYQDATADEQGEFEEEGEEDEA

B1: GST–CPn0572^595-755 (domain or fragment, Chlamydia pneumoniae (Cpn GiD), UniProt Q9Z7Y1 595-755, looked up)
chain: VATTITPQARTASTSTTSIGTGTESTSTTSTGTGTGSVSTQSTGVGTPTTTTRSTGTSATTTTSSASTQTPQAPLPSGTRHVATISLVRNAAGRSIVLQQGGRSQSFPIPPSGTGTQNMGAQLWAAASQVASTLGQVVNQAATAGSQPSSRRSSPTSPRRK
notes: Cloned into a modified pGEX-5X-1 in which the factor Xa site is replaced by a TEV protease site; source: E. coli Rosetta (DE3), purified (glutathione agarose beads)
In the case of B1, the Kd stood at 70 nM.

These data come from PMC11444262, “Direct targeting of host microtubule and actin cytoskeletons by a chlamydial pathogenic effector protein” (Journal of Cell Science, 2024).
